Results from patent publication US9221915 (dated 2015).
Where two headings read alike, the source gives them in different places.

T1: cynomolgus ALK-1/Fc (cynomolgus monkey)
T1 chain: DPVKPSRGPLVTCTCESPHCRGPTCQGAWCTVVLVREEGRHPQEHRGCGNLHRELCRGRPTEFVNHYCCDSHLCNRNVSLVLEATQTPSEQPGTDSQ

T2: rat ALK-1 cell surface (rat, UniProt P80203)
T2 chain: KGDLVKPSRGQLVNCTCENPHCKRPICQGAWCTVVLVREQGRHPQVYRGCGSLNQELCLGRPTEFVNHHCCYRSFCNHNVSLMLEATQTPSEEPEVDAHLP

T3: cynomolgus ALK-1 cell surface (cynomolgus monkey)
T3 chain: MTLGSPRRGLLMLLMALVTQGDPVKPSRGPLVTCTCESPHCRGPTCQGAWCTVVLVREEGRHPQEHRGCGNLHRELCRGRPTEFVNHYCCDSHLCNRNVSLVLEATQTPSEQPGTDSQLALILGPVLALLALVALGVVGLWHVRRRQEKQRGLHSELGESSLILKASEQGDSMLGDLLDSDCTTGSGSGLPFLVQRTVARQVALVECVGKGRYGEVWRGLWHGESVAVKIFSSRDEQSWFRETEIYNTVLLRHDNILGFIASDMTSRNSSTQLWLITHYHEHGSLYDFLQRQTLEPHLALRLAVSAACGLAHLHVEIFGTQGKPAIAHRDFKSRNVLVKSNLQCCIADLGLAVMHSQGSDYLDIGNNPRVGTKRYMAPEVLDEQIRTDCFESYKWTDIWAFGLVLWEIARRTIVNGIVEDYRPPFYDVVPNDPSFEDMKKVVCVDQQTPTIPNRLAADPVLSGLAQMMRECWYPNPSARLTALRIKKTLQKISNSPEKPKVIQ


How the values were obtained:
[1] = target: human ALK-1/Fc (human, UniProt P37023); assay: SPR, bivalent
[2] = target: T1, cynomolgus ALK-1/Fc; assay: SPR, bivalent
[3] = target: T2, rat ALK-1 cell surface; assay: FACS
[4] = target: T3, cynomolgus ALK-1 cell surface; assay: FACS
[5] = target: T3, cynomolgus ALK-1 cell surface; assay: FACS

Kd [1] [nM] | Kd [2] [nM] | Kd [4] [nM] | Binder | also measured
0.1 | 0.15 | – | 4.38.1 (antibody, V domains shown) VH: QVQLQESGPGLVKPSQTLSLTCTVSGGSISSGDYYWSWIRQHPGKGLEWIGYIYYSGSTYYNPSLKSRVTISIDTSKNQFSLKLSSVTAADTAVYYCARERDYGGGFDYWGQGTLVTVSS VL: not shown | –
– | – | 2 | 1.12.1 (antibody, V domains shown) VH: QVQLQESGPGLVKPSQTLSLTCTVSGGSMSSGEYYWNWIRQHPGKGLEWIGYIYYSGSTYYNPSLKSRVTISVDTSKNQFSLKLSSVTAADTAVYYCARESVAGFDYWGQGTLVTVSS VL: not shown | Kd [3]: > 100 nM; Kd [5]: 2 nM
– | – | 1.6 | 5.13.1 (antibody, V domains shown) VH: QVQLQESGPGLVKPSQTLSLTCTVSGGSISSGDYYWNWIRQHPGKGLEWIGYIYYSGSTYYNPSLKSRVTISVDTSKNQFSLKLSSVTAADTAVYYCAREGLEAFDIWGQGTMVTDSS VL: EIVLTQSPGTLSLSPGERATLSCRASQSVSSSYLAWYQQKPGQAPRLLIYDASSRATGIPDRFSGSGSGTDFTLTISRLEPEDFAVYYCQHYGSSLLTFGGGTKVEIK | –
0.018 | 0.062 | 3 | 1.162.1 (antibody, V domains shown) VH: QVQLQESGPGLVKPSQTLSLICTVSGGSISSGEYYWSWIRQHPGKGLEWIGYIYYSGSTYYNPSLKSRLTISVDTSKNQFSLKLSSVTAADTAVYYCAREGIGAFDIWGQGTMVTVSS VL: EIVLTQSPGTLSLSPGERATLSCRASQSVSSSYLAWYQQKPGQAPRLLIYGASSRATGIPDRFSGSGSGTDFTLTIIRLDPEDFAVYYCQRYGSSPITFGQGTRLEIK | –
0.076 | 0.28 | – | 1.14.2 (antibody, V domains shown) VH: QVQLQESGPGLVKPSETLSLTCTVSGGSVSSGDYYWNWIRQPPGKGLEWIGYIYYSGSTNYNPSLKSRVTISVDTSKNQFSLKLSSVTAADTAVYYCAREAVSAFDYWGQGTLVTVSS VL: EIVLTQSPGTLSLSPGERATLSCRASQSVSSTYLAWHQQKPGQAPRLLIYGVSSRASGVPDRFSGSGSGTDFTLTISRLEPEDFAVYYCQQYGSSPITFGQGTRLEIK | –
0.073 | 0.28 | – | 4.72.2 (antibody, V domains shown) VH: QVQLQESGPGLVKPSQTLSLTCTVSGGSISSGEYYWSWIRQHPGKGLEWIGYIFYSGSTYYNPSLKSRVTISLDTSKNQFSLKLSSVTAADTAVYYCARESTDGMDVWGQGTTVTVSS VL: EIVLTQSPGTLSLSPGERATLSCRASQSVSSSYLAWYQRKPGQAPRLLIYGVSSRATGIPDRFSGSGSGTDFTLTISRLEPEDFAVYYCQQYGSSMITFGQGTRLEIK | –
– | – | 9 | 4.68.1 (antibody, V domains shown) VH: QVQLQESGPGLVKPSQTLSLTCTVSGGSISSGDYYWNWIRQHPGKGLEWIGYIYYSGSTYYNPSLKSRVTISVDTSKNQFSLKLSSVTAADTAVYYCAREDIAGFDPWGQGTLVTVSS VL: not shown | –
– | 0.32 | – | 4.68.2 (antibody, V domains shown) VH: QVQLQESGPGLVKPSQTLSLTCTVSGGSISSGDYYWNWIRQHPGKGLEWIGYIYYSGSTYYNPSLKSRVTISVDTSKNQFSLKLSSVTAADTAVYYCAREDIAGFDPWGQGTLVTVSS VL: not shown | –
0.07 | 0.43 | – | 4.24.2 (antibody, V domains shown) VH: QVQLQESGPGLVKPSQTLSLTCTVSGGSISSNDYYWNWIRQHPGKGLEWIGYIYYSGSTYYNPSLKSRVTISVDTSKNQFSLKLSSVTAADTAVYYCARESTDGMDVWGQGTTVTVSS VL: ENVLTQSPGTLSLSPGERATLSCRASQSVSSNYLAWYQQKPGQAPRLLIYGASSGATGIPDRFSGSGSGTDFTLTISRLEPEDFAVYYCQHYGSSPITFGQGTRLEIK | –
0.04 | 0.13 | – | 4.58.2 (antibody, V domains shown) VH: QVQLQESGPGLVKPSQTLSLTCTVSGGSISSGDYYWNWIRQHPGKGLEWIGYIYYSGSTYYNPSLKSRVTISVATSKNQFSLKLSSVTAADTAVYYCAREATEGFDYWGQGTLVTVSS VL: EIVLTQSPGTLSLSPGERATLSCRASQSVSTTYLAWYQQKPGQAPRLLIYGASSRATGIPDRFSGSGSGTDFTLTISRLEPEDFALYYCQHYGTSSITFGQGTRLEIK | –
– | – | 3.8 | 4.72.1 (antibody, V domains shown) VH: QVQLQESGPGLVKPSQTLSLTCTVSGGSISSGEYYWSWIRQHPGKGLEWIGYIFYSGSTYYNPSLKSRVTISLDTSKNQFSLKLSSVTAADTAVYYCARESTDGMDVWGQGTTVTVSS VL: EIVLTQSPGTLSLSPGERATLSCRASQSVSSSYLAWYQRKPGQAPRLLIYGVSSRATGIPDRFSGSGSGTDFTLTISRLEPEDFAVYYCQQYGSSMITFGQGTRLEIK | –
– | – | – | 1.12.1(D19A) (antibody, V domains shown) VH: QVQLQESGPGLVKPSQTLSLTCTVSGGSMSSGEYYWNWIRQHPGKGLEWIGYIYYSGSTYYNPSLKSRVTISVDTSKNQFSLKLSSVTAADTAVYYCARESVAGFDYWGQGTLVTVSS VL: not shown | Kd [5]: 3.8 nM
– | 0.019 | 0.78 | 4.62.1 (antibody, V domains shown) VH: QVQLQESGPGLVKPSQTLSLTCTVSGGSISSGDYYWNWIRQHPGKGLEWIGYIYYSGSTYYNPSLKSRVTISVDTSKNQFSLKLSSVTAADTAVYYCARESTDGMDVWGQGTTVTVSS VL: not shown | –
– | 0.19 | – | 5.13.3 (antibody, V domains shown) VH: QVQLQESGPGLVKPSQTLSLTCTVSGGSISSGDYYWNWIRQHPGKGLEWIGYIYYSGSTYYNPSLKSRVTISVDTSKNQFSLKLSSVTAADTAVYYCAREGLEAFDIWGQGTMVTDSS VL: EIVLTQSPGTLSLSPGERATLSCRASQSVSSSYLAWYQQKPGQAPRLLIYDASSRATGIPDRFSGSGSGTDFTLTISRLEPEDFAVYYCQHYGSSLLTFGGGTKVEIK | –
– | – | 3.1 | 4.24.1 (antibody, V domains shown) VH: QVQLQESGPGLVKPSQTLSLTCTVSGGSISSNDYYWNWIRQHPGKGLEWIGYIYYSGSTYYNPSLKSRVTISVDTSKNQFSLKLSSVTAADTAVYYCARESTDGMDVWGQGTTVTVSS VL: ENVLTQSPGTLSLSPGERATLSCRASQSVSSNYLAWYQQKPGQAPRLLIYGASSGATGIPDRFSGSGSGTDFTLTISRLEPEDFAVYYCQHYGSSPITFGQGTRLEIK | –
0.22 | 1.8 | – | 1.183.2 (antibody, V domains shown) VH: QVQLQESGPGLVKPSETLSLTCTVSGGSISSYYWSWIRQPPGKGLEWIGYIYYSGSTNYNPSLKSRVTISVDTSKNQFSLKLSSVTAADTAVYYCAREDDSSGCPYFDYWGQGTLVTASS VL: EIVMTQSPATLSVSPGERATLSCRASQSVSSNLAWYQQKPGQAPRVLIYGASTRATGIPVRFSGSGSGTEFTLTISSLQSEDFAVYYCQQYNNWPFTFGPGTKVDIK | –
